The term IC50 denotes the concentration at which inhibition is half-maximal. What is called Cmax is the peak of the concentration-time curve. Usually Tmax stands for the time from dosing to the highest level.

One data set deals with T1, human LDLa-linker (Homo sapiens, UniProt Q8WXD0).
T1 construct: human LDLa linker [huRXFP2-LDLa-linker(38-105)-ratFc-8XHIS]; enterokinase cleavage site (C); rat Fc (C, cleaved yes); 8xHis (C, cleaved yes); made in house; host or cells: Expi293
Kind of data set: Biacore S200 binding to human LDLa-linker protein. The protocol:
Goat anti Rat Fc gamma fragment specific (Jackson Immunoresearch, 112-005-071) was immobilized at 30 µg/mL to a Series S CM5 chip (Cytiva Life Sciences). In three separate runs, twenty different purified recombinant rat anti RXFP2 antibodies were then captured to the CM5 chip at a concentration of 5 µg/mL. The antibody panel was captured; rat LDLa-linker or human LDLa-linker protein was flowed as analyte at the following concentrations: 20 nM, 10 nM, 5 nM, 2.5 nM, […], and 0 nM. Antibody kinetics were evaluated using a 1:1 fit model (Biacore S200).
(In general: Surface plasmon resonance follows binding to a sensor surface in real time, without labels.)

The target in data set [1] is T2, human LDLa peptide (UnitProt Q8WXD0 43-80) (Homo sapiens, UniProt Q8WXD0).
T2 construct: human LDLa peptide (Q8WXD0 43-80)
T2 sequence (Q8WXD0 43-80 limits assumed): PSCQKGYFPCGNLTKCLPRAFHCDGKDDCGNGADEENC
Kind of data set: ELISA binding to linker-less human LDLa peptide. Here is the method: The human/rat RXFP2 cross reactive antibodies belong to two epitope bins and were further evaluated for binding to the linker-less human LDLa peptide (UnitProt Q8WXD0 43-80) by ELISA. […] The different domain requirements for binding are consistent with results from the binning experiment showing 4F6 and 4G6 are in a separate bin from 4B1.
Rat LDLa-linker_ratFc, human LDLa-linker_ratFc, or ratFc, or human LDLa peptide (Q8WXD0 43-80) was diluted to 1 µg/mL in 1X PBS and immobilized in separate 96-well ELISA plates (Nunc Maxisorp), 50 µL/well. The plates were then incubated overnight at 4 °C. The following day the plates were washed three times with ELISA wash buffer (PBS + 0.05% Tween-20) and then blocked with ELISA blocking buffer (PBS + 0.05% Tween-20 + 1% BSA), 200 µL/well, and incubated 1 h at room temperature on a shaker. Plates were again washed three times followed by the addition of the primary antibodies. Hybridoma supernatant was added neat, 50 µL/well; mouse serum was added 1:100 and then serially diluted 1:2 for 8 points, 50 µL/well. Purified antibodies were added 5 µg/mL in the first well and serially diluted down the plate 1:2 for 8 points, 50 µL/well. Primary antibody was incubated for 1 h at room temperature on a shaker. […] Stopping solution (2N Sulfuric acid) was added to the plates 50 µL/well, and then read on a plate reader (SpectraMax Molecular Devices) at 450 nm.
A general note: An ELISA detects its analyte on a solid surface through an enzyme-linked reagent.

For data set [2], the target named is T3, rat RXFP2 (Rattus norvegicus, UniProt F7EMH8). Kind of data set: INSL3-stimulated cAMP assay in HEK293 stably expressing rat RXFP2.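 For all read-outs here: cAMP measured with an HitHunter kit in 384-well plates, 11-point dose–response curves up to 1 µM antibody, four-parameter variable-slope fit.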 The following applies: INSL3 EC80-stimulated cAMP, stable expression, N = 2; for IC50: read-out: HEK293-rat RXFP2 cAMP IC50. Background: Changes in cAMP serve as a functional read-out for many G protein-coupled receptors.
T3 sequence (F7EMH8 20-737): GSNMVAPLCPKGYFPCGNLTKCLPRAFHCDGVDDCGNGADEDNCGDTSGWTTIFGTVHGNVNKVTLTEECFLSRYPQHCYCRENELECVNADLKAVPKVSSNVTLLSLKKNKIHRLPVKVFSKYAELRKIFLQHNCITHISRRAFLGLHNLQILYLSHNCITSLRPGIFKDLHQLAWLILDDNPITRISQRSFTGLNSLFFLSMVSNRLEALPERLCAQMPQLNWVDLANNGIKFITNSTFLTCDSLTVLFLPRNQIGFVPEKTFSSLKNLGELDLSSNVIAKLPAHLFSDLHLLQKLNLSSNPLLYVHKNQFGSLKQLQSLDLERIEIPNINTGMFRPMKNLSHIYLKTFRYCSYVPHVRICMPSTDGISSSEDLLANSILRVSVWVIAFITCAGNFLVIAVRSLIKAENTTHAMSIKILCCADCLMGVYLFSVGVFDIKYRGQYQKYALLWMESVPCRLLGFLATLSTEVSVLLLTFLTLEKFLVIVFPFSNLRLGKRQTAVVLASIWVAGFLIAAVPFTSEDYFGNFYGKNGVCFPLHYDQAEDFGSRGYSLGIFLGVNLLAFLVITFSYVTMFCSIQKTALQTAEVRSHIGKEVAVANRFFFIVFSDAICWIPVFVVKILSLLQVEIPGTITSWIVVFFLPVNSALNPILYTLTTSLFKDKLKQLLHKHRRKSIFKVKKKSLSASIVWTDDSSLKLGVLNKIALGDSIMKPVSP
Description: (§4) RXFP activity assays were developed in HEK293 with stable expression of RXFP2 or RXFP1.
(§5) The same approach was used to generate stable HEK293 lines expressing human and rat RXFP1 and RXFP2 cDNA. The cAMP assay was conducted using the Eurofin Hithunter kit per manufacturer’s instructions in a 384-well format. All dose curve fitting and EC50 and IC50 determinations were performed in Prism (v9.3.0) using the non-linear fit, variable slope (four parameter) function.
The target in the next data set is human RXFP2 (Homo sapiens, UniProt Q8WXD0). Kind of data set: INSL3-stimulated cAMP assay in HEK293 stably expressing human RXFP2. The following applies: INSL3 EC80-stimulated cAMP, stable expression, N = 2; for IC50: read-out: HEK293-human RXFP2 cAMP IC50.
Chain of human RXFP2 (Q8WXD0 whole entry): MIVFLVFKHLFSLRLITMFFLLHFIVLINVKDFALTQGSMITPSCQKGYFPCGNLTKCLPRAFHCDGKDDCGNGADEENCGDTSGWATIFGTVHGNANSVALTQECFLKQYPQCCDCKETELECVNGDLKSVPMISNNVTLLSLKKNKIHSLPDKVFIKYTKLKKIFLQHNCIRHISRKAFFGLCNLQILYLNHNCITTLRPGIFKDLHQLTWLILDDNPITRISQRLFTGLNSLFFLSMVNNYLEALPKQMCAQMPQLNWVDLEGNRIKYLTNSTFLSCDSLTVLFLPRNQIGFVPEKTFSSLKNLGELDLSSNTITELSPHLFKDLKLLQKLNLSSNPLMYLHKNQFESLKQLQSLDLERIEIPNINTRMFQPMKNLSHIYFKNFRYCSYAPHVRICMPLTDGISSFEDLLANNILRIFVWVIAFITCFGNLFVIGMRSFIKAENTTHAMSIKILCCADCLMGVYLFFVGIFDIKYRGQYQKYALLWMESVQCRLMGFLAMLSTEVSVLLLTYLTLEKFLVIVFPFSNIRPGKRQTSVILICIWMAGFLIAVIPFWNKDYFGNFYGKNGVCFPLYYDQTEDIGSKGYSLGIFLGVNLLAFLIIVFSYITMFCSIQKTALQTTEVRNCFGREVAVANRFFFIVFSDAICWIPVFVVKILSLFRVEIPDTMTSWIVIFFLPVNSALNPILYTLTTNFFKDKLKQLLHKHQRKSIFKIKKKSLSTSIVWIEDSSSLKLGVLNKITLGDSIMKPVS
A short description of data set [3]: Pharmacokinetic study of RXFP2 mAbs in rat. It is filed as in vivo, Wistar Han rats. Here is the method: For the pharmacokinetic study of RXFP2 mAbs in rat, 1G1, 2D4, 4B1, 4G6, 1F2, and 3F3 were prepared in phosphate buffered saline (0.100 mg/mL) with low endotoxin (≤ 0.76 EU/mL). Adult male Wistar Han rats (n = 3/mAb) were administered 1 mg/kg subcutaneously (10 mL/kg). Blood samples (100 µL) were collected in EDTA containing tubes at 0.25, 3, 6 24, 48, 96, 168 (day 7), 336 (day 14), 504 (day 21), and 672 (day 28) hours post dose, immediately centrifuged (6100 rpm), and 50 µL plasma stored at − 80 °C until assay. Rats maintained health throughout the study and were anesthetized (isoflurane to effect) and euthanized on day 28.
Frozen rat plasma samples were thawed and analyzed using a qualified analytical method based on sample dilution, followed by Electrochemiluminescence immunoassay analysis. The lower limit of quantification (LLQ) was 0.1 µg/mL using a 10 µL aliquot of 51-fold diluted rat plasma with a higher limit of quantification (HLQ) of 10 µg/mL. RXFP2 mAbs were captured with LDLa protein and detected with sulfo-tag labeled mouse anti-rat IgG2b. The computer systems that were used to acquire and quantify data included Gyrolab Workstation Version 8.1.5 and Watson LIMS version 7.6.1. Rat pharmacokinetic parameters were calculated by non-compartmental analysis (NCA) analysis using WinNonlin Phoenix 64 (version 8.3). Values are reported in mean ± standard deviation.

The target in data set [4] is T3, rat RXFP2. Kind of data set: INSL3-stimulated CYP11B1 mRNA expression in H295R stably expressing rat RXFP2. It is filed as cell-based. On the set-up: expressed in transfected cells. The following applies: INSL3 EC80 (3.5 nM), 48 h, qPCR; N = 2. The protocol:
(§1) RXFP2 antagonists were added to H295R-rRXFP2 before addition of INSL3 EC80 (3.5 nM) for 48 h, whereupon the cells and supernatants were collected. CYP11B1 and CYP11B2 mRNA were determined by qPCR and the RXFP2 blocker potencies were calculated (Fig. 5a). Fifteen antibodies have IC50s < 50 nM, and three of the top antibodies (1F2, 4G6, and 2D4) were selected for evaluation in steroid hormone secretion assays by ELISA.
(§2) Data entered as XY table, with x = [Inhibitor] (nM) and y = CYP11B2 or CYP11B1 fold change.

The target of data set [5] is T3, rat RXFP2. Kind of data set: INSL3-stimulated CYP11B2 mRNA expression in H295R stably expressing rat RXFP2. It is filed as cell-based. Details: expressed in transfected cells. The following applies: INSL3 EC80 (3.5 nM), 48 h, qPCR; N = 2. The protocol:
as §1, §2

For data set [6], the target named is T3, rat RXFP2. Kind of data set: Cortisol secretion (ELISA) in H295R stably expressing rat RXFP2. The following applies: H295R-rRXFP2, 3.5 nM INSL3, 48 h, read-out: IC50 on INSL3-induced cortisol release. It is filed as cell-based. On the set-up: expressed in transfected cells. Here is the method: as §1
(§3) The day after seeding, H295R cells were treated and incubated for 48 h before supernatants and cell lysates were collected. Treatments included INSL3, IgG, 1F2, and 4G6 at 0.035 pM–3.5 µM, 2D4 at 0.01 nM–1 uM, or phosphate buffered saline control. In RXFP2 antagonist assays, 3.5 nM INSL3 was used as the stimulus. Cortisol present in the adrenal cell supernatant at 48 h post treatment was detected by ELISA (R&D KGE008B). Sample dilution was optimized at 1/90 using a standard curve. Aldosterone was below the limit of detection by ELISA (R&D KGE016) and required liquid–liquid extraction (LLE) twice using methyl tetra butyl ether. Post extraction samples were dried (SPE Nitrogen dryer) and reconstituted for ELISA analysis. All samples were run in duplicates.

The target in data set [7] is T3, rat RXFP2. Kind of data set: Aldosterone secretion (ELISA) in H295R stably expressing rat RXFP2. It is filed as cell-based. Details: expressed in transfected cells. The settings on record: H295R-rRXFP2, 3.5 nM INSL3, 48 h, read-out: IC50 on INSL3-induced aldosterone release. The protocol: as §1, §3
Where [8] appears, read: male Wistar Han rats, 1 mg/kg s.c., n = 3, mean ± SD.

T1 sequence (Q8WXD0 38-105): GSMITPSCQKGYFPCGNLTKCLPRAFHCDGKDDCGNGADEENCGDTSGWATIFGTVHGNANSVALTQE
Description for human RXFP2: as §4, §5

B1: 4F6: Human/rat cross-reactive RXFP2 monoclonal antibody, rat IgG2b backbone; binds the LDLa domain (antibody, V domains shown)
VH: EVQLQQSGPELVKPGASVKMSCKASGYTFTNYVLHWVKQKPGQGLEWIGYINPYNDGSKYNEKFKGRATLTSDKSSSTAYMELSSLTSEDSAVYYCARGGWLLDYFDYWGQGTTLTVSS
VL: DVLMTQSPLSLPVSLGEQASISCRSSQSIVHSDGDTYLEWYLQKPGQSPNLLIYKVSNRFSGVPDRFSGSGSGTDFTLKISRVEAEDLGVYYCFQGSHVPPTFGGGTKLEIK
Turning to B1, in the data set with human LDLa-linker, the “cross reactivity to the human LDLa-linker” value is on record as “cross reactivity”. Further, the “binding to linker-less human LDLa peptide” value in data set [1] is listed as “bind”. Moreover, in the data set with rat RXFP2 [2], the “HEK293-rat RXFP2 cAMP % Max Response” value is recorded as 80.4% and the IC50 was 48.5 nM. In addition, in the data set with human RXFP2, the “HEK293-human RXFP2 cAMP % Max Response” value is recorded as ~ 82.7% and the IC50 was around 354 nM.

B2: 2D4: RXFP2 monoclonal antibody from hybridoma, recombinantly expressed in a rat IgG2b backbone (antibody, V domains shown)
VH: QVQLKESGPGLVAPSQSLSITCTVSGFSLTTYGISWVRQPPGKGLEWLGVIWTGGGTNYNSALKSRLSISKDNSKSQVFLKMNSLQTDDTARYYCARTEGYYVMDYWGQGTSVTVSS
VL: DIQMTQSPASLSVSVGETVTITCRASENIYSNLVWYQQKQGKSPQLLVYAATNLADGVPSRFSGSGSGTQYSLKINNLQSEDFGTYYCQHFWGPPWTFGGGTKLEIK
With B2, in data set [3] (Wistar Han rats, 1 mg/kg sc., over 28 days), the “half-life, extrapolated values” was at least 264 h. The “estimated dose to achieve tenfold higher IC50 HEK-rRXFP2 cAMP activity for approximately 28 days in rat” value in data set [3] (from trough concentration, dose-linearity assumed) is “approximately 9 mg/kg”. This molecule displayed an AUClast in [3] (setting [8]) of 3210 ± 463 µg·h/mL. In [3] (setting [8]), the Cmax amounted to 7360 ± 1540 ng/mL. Further, the Tmax in data set [3] (setting [8]) turned out to be 168 ± 0 h. For the same molecule, the IC50 with rat RXFP2 [4] is 0.14 nM; in the data set with rat RXFP2 [5] it was 0.11 nM; with rat RXFP2 [6], 0.17 nM; in the data set with rat RXFP2 [7], 0.05 nM; with rat RXFP2 [2], 21 nM; in the data set with human RXFP2 it was above 1000 nM. Further, the “HEK293-rat RXFP2 cAMP % Max Response” value with rat RXFP2 [2] is 86.8%.

Values taken from article PMC11162469, “Discovery of RXFP2 genetic association in resistant hypertensive men and RXFP2 antagonists for the treatment of resistant hypertension” (Scientific Reports, 2024).
